Assay [1] deals with Cy5 N-terminal-labeled WWP2 (human) (UniProt O00308). Nature of the assay: MST; 10 nM N-terminal Cy5-labeled WWP2, NDP52 (up to 48 uM) or OPTN (up to 60 uM) in two-fold serial dilution; 25 mM Hepes pH 7.8, 250 mM NaCl, 1 mM TCEP, 0.5 mg/ml BSA, 0.05% Tween-20; room temperature; apparent KD, quadratic model.
A further assay deals with PTEN (Homo sapiens) (UniProt P60484). The note with it: cited from earlier work.
PTEN (Homo sapiens), sequence (P60484 2-403): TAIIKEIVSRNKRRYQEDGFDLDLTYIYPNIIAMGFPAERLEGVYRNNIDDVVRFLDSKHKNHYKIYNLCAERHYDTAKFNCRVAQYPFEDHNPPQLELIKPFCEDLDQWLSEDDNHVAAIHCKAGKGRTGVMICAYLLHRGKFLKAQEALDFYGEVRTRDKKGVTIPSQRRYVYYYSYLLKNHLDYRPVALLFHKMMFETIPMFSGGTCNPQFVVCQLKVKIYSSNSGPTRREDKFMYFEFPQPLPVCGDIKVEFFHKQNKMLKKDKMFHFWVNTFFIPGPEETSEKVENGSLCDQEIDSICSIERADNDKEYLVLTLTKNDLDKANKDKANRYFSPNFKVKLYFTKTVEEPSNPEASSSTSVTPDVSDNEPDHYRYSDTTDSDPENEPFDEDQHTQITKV

Optineurin, sequence (Q96CV9 whole entry): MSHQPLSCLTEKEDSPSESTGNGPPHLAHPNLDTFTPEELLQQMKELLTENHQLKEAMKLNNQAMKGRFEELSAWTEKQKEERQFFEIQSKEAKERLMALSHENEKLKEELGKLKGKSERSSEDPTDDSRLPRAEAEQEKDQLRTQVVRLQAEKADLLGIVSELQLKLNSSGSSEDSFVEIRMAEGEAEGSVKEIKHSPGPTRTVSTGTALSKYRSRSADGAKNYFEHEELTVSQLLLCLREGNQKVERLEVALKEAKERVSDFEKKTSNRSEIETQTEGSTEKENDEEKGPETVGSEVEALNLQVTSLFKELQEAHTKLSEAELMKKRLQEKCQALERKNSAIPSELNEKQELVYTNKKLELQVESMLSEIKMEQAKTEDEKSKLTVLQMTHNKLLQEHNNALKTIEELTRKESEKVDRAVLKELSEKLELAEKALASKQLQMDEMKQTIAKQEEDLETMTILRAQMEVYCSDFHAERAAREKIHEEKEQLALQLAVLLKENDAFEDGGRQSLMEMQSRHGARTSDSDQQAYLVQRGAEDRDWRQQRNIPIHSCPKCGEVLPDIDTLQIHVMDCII
WWP2, sequence (O00308 whole entry): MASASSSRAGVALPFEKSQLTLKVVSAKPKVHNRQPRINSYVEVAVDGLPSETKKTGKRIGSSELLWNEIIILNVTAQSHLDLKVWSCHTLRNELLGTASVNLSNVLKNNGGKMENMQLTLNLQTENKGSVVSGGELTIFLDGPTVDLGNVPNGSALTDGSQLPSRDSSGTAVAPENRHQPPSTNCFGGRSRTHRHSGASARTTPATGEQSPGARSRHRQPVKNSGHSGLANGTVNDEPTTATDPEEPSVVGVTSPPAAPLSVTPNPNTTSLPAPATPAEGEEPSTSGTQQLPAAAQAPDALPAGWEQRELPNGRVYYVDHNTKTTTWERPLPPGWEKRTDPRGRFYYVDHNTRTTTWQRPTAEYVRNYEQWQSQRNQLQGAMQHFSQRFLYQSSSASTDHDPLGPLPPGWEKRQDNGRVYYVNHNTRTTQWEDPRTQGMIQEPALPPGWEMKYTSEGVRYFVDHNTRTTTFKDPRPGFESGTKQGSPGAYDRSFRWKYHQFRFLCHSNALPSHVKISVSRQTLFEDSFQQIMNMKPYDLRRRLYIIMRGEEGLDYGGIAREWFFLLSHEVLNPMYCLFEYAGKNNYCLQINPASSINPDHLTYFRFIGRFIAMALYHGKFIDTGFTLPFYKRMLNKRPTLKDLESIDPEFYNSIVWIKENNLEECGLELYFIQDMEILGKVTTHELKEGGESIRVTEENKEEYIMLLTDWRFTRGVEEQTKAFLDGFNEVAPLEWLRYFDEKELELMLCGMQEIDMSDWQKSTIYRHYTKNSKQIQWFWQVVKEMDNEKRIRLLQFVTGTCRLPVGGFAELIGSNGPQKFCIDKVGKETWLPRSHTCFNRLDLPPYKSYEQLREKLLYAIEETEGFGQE

Turning to “Optineurin (from UniProt Q96CV9 1-577) (natural protein)”, in assay [1], the Kd is 39 µM.
With WWP2 (from UniProt O00308), the Kd with PTEN (Homo sapiens) was 20 µM.

These data come from PMC9034101.
